Measurements as given in paper PMC12159149.

Molecular target: geCHO.sE2.7 (secreted HCV E2 ectodomain produced in glycoengineered CHO line 7) (hepatitis C virus, genotype 1a (H77C))
Assay: ELISA

“CD81 large extracellular loop (LEL)-Fc fusion” showed an OD at 450 nm at the highest concentration of CD81-LEL-Fc (2.8 μM) of 0.4 OD.
